Test results taken from US20250027955A1, “ETHYLENE RECEPTORS AND BINDING DOMAINS WITH MODIFIED BINDING KINETICS FOR ETHYLENE” (Trustees of Dartmouth College, priority 2022, published 2025).
Numbering of substitutions follows the chain as printed. In names and notes the source's numbering stands. Like-named read-outs stand apart in the source and are kept apart here.

B1: ETR1^D25A: ETR1 with site-directed mutation of Asp25 to Ala (protein, UniProt P49333 1-738, looked up, variant D25A)
Ethylene receptor 1: MEVCNCIEPQWPADELLMKYQYISAFFIAIAYFSIPLELIYFVKKSAVFPYRWVLVQFGAFIVLCGATHLINLWTFTTHSRTVALVMTTAKVLTAVVSCATALMLVHIIPDLLSVKTRELFLKNKAAELDREMGLIRTQEETGRHVRMLTHEIRSTLDRHTILKTTLVELGRTLALEECALWMPTRTGLELQLSYTLRHQHPVEYTVPIQLPVINQVFGTSRAVKISPNSPVARLRPVSGKYMLGEVVAVRVPLLHLSNFQINDWPELSTKRYALMVLMLPSDSARQWHVHELELVEVVADQVAVALSHAAILEESMRARDLLMEQNVALDLARREAETAIRARNDFLAVMNHEMRTPMHAIIALSSLLQETELTPEQRLMVETILKSSNLLATLMNDVLDLSRLEDGSLQLELGTFNLHTLFREVLNLIKPIAVVKKLPITLNLAPDLPEFVVGDEKRLMQIILNIVGNAVKFSKQGSISVTALVTKSDTRAADFFVVPTGSHFYLRVKVKDSGAGINPQDIPKIFTKFAQTQSLATRSSGGSGLGLAISKRFVNLMEGNIWIESDGLGKGCTAIFDVKLGISERSNESKQSGIPKVPAIPRHSNFTGLKVLVMDENGVSRMVTKGLLVHLGCEVTTVSSNEECLRVVSHEHKVVFMDVCMPGVENYQIALRIHEKFTKQRHQRPLLVALSGNTDKSTKEKCMSFGLDGVLLKPVSLDNIRDVLSDLLEPRVLYEGM
B2: ETR1^D25E: ETR1 with Asp25 replaced by Glu (protein, UniProt P49333 1-738, looked up, variant D25E)
Ethylene receptor 1: B1 Ethylene receptor 1 with A25E
B3: ETR1^K91M: ETR1 with Lys91 replaced by a nonpolar sidechain of similar size (Met) (protein, UniProt P49333 1-738, looked up, variant K91M)
Ethylene receptor 1: B1 Ethylene receptor 1 with A25D, K91M
B4: ETR1^D25Q: ETR1 with Asp25 replaced by Gln (protein, UniProt P49333 1-738, looked up, variant D25Q)
Ethylene receptor 1: B1 Ethylene receptor 1 with A25Q
B5: ETR1^D25N,K91A: ETR1 combining Asp25Asn with K91A (protein, UniProt P49333 1-738, looked up, variant D25N K91A)
Ethylene receptor 1: B1 Ethylene receptor 1 with A25N, K91A
B6: ETR1^D25N,K91M: ETR1 combining Asp25Asn with K91M (protein, UniProt P49333 1-738, looked up, variant D25N K91M)
Ethylene receptor 1: B1 Ethylene receptor 1 with A25N, K91M
B7: ETR1^K91R: ETR1 with basic Lys91 replaced by Arg (protein, UniProt P49333 1-738, looked up, variant K91R)
Ethylene receptor 1: B1 Ethylene receptor 1 with A25D, K91R
B8: ETR1^K91A: ETR1 with Lys91 replaced by smaller nonpolar sidechain (Ala) (protein, UniProt P49333 1-738, looked up, variant K91A)
Ethylene receptor 1: B1 Ethylene receptor 1 with A25D, K91A
B9: ETR1^D25N,K91R: ETR1 combining Asp25Asn with K91R (protein, UniProt P49333 1-738, looked up, variant D25N K91R)
Ethylene receptor 1: B1 Ethylene receptor 1 with A25N, K91R

Legend:
[1] = system: dark-grown Arabidopsis seedlings; experiment: Silver sensitivity assay: effect of silver on ethylene response of dark-grown seedlings; type: in vivo
From the text: As an initial test for the feasibility of the first hypothesis, Applicant asked if ETR1^D25N could still bind a metal cofactor, and therefore potentially ethylene, in planta. For this purpose, Applicant examined the effects of silver (Ag) on ethylene sensitivity. Silver is thought to substitute for the copper cofactor and, although receptors containing silver can still bind ethylene, they no longer transmit the signal, resulting in ethylene insensitivity.

[2] = system: Arabidopsis seedlings, etr1 etr2 ein4 background; experiment: Short-term kinetic analysis of hypocotyl growth response to ethylene; type: in vivo; details: 10 μL/L ethylene for 2 hr
Procedure: Based on the differences Applicant uncovered for the long-term ethylene growth responses for the Asp25 mutants, Applicant also analyzed their short-term hypocotyl growth and molecular responses to ethylene. To this end, Applicant performed a short-term kinetic analysis, analyzing the initial hypocotyl growth inhibition in response to 10 μL/L ethylene and the growth recovery following the removal of ethylene after two hours of treatment (FIG. 6A).
(§1) All Arabidopsis lines were of the Columbia (Col-0) accession. The etr1-1 and etr1-6 etr2-3 ein4-4 mutant lines have been described. Analysis of the triple response of dark-grown Arabidopsis seedlings to ethylene was performed as described previously. Briefly, seedlings were grown at 22° C. on vertically oriented plates on half-strength Murashige and Skoog basal medium with Gamborg's vitamins (pH 5.75; Sigma), 0.8% (w/v) agar, and 5 μM aminoethoxyvinylglycine (AVG) to inhibit ethylene biosynthesis. The stratified seed was exposed to light for 8 hr and then moved to the dark in the presence or absence of ethylene, with analysis of the seedling growth being performed following 4 days total growth. For short-term kinetic analysis of dark-grown seedlings, time-lapse imaging and growth rate analysis of hypocotyls were carried out as described previously.

[3] = system: Arabidopsis seedlings, etr1 etr2 ein4 background; details: previously reported; cited from earlier work
[4] = system: Arabidopsis seedlings, etr1 etr2 ein4 background; experiment: Triple-response hypocotyl growth assay of dark-grown seedlings expressing ETR1 transgenes; type: in vivo; details: for rescue of growth of etr1 etr2 ein4 triple mutant in air: absence of ethylene, hypocotyl and adult shoot growth; for hypocotyl growth response to ethylene: dark-grown seedlings, 0 or 1 μL L^−1 ethylene
Procedure: Functionality of the ETR1 Asp25 mutants was tested by transgenic expression in the etr1 etr2 ein4 Arabidopsis background.
Applicant can thus exploit the triple mutant to assess the ability of the ETR1 transgenes to rescue growth in the absence of ethylene as well as their ability to mediate a response to ethylene. Such an analysis indicates whether the encoded receptors are able to assume the ‘on’ conformation that represses the ethylene response in air, as well as the ‘off’ conformation that occurs in response to ethylene binding.
as §1

[5] = Saturable [14C]ethylene binding to yeast transgenically expressing ETR1; parameters: species or system Saccharomyces cerevisiae; details: 0.21 μL L^−1 [14C]ethylene; for saturable [14C]ethylene binding: with or without excess [12C]ethylene; for ethylene binding relative to ETR1^wt: % of wild-type binding
From the text: Saturable ethylene binding of the ETR1 Asp25 mutants was examined by heterologous expression in yeast, with binding to [^14C]ethylene determined in the presence or absence of excess [^12C]ethylene (FIG. 2C). […] This included the ETR1^D25A mutant, consistent with previous observations, as well as for the ETR1^D25N and ETR1^D25Q mutants (FIG. 2C). Results from the ethylene binding assay are therefore consistent with the negative charge at D25 playing a significant role in mediating high-affinity ethylene binding.
[^14C]ethylene (specific activity=116 mCi/mmol) was obtained from ViTrax Radiochemicals (Placentia, CA) and trapped as the mercuric perchlorate complex as described. For ethylene binding assays in yeast, ETR1 was expressed in the yeast Saccharomyces cerevisiae (strain FY834) using the vector pYcDE-2 and a constitutive ADC1 promoter. The yeast growth media was supplemented with 40 μg L^−1 copper sulfate. Saturable ethylene binding to yeast was determined by analyzing binding of 0.3 g yeast per sample to 0.21 μL L^−1 [^14C]ethylene, in the presence or absence of excess [^12C]ethylene.

[6] = Copper binding assay: purified ETR1 transmembrane domain titrated to BCA2-Cu(I) complex, absorbance at 562 nm; details: ETR1-TMD expressed and purified from E. coli; Cu(I) stabilized by BCA
From the text: Cu(I) was stabilized by the copper chelator BCA, and then titrated with increasing ETR1 protein concentration.
Titration curves were corrected for nonspecific binding observed with chemically and thermally denatured receptor to maximize signal to background levels.

[7] = previously reported, cited from earlier work
[8] = system: OSR1, ERF1, EXP5 and EXPb1 expression; experiment: Ethylene-dependent gene expression by RT-qPCR; type: in vivo, Arabidopsis; details: 0 or 1 μL L^−1 ethylene for 2 hr
Procedure: To examine the short-term molecular response, Applicant characterized ethylene-dependent gene expression for the ETR1 Asp25 mutants (FIG. 6B). Expression of OSR1 and ERF1 is induced, whereas the expression of EXP5 and EXPb1 is repressed, in response to ethylene.
RNA isolation and RT-qPCR was performed with three biological replicates and two technical replicates of each.

| Molecule | short-term hypocotyl growth response to ethylene [2] | rescue of growth of etr1 etr2 ein4 triple mutant in air [4] | hypocotyl growth response to ethylene [4] | saturable [14C]ethylene binding [5] | copper binding [6] | molecular response to ethylene (ethylene-dependent gene expression) [8] | ethylene binding relative to ETR1^wt [5] | also measured |
| --- | --- | --- | --- | --- | --- | --- | --- | --- |
| [Ag] [silver, reference compound] | – | – | – | – | – | – | – | effect of silver on ethylene response of etr1 etr2 ein4 triple mutant ([1]; etr1 etr2 ein4, 10 μL/L ethylene): still responsive to ethylene; effect of silver on ethylene response of wild-type seedlings ([1]; wild-type, 10 μL/L ethylene): blocked |
| B1 | exhibit ethylene insensitivity | rescued growth | conferred ethylene insensitivity | No saturable [^14C]ethylene binding was detected | no copper binding | various levels of hyposensitivity | – | ethylene sensitivity of plants (previous studies) [3]: confers dominant ethylene-insensitivity; ethylene binding (previous studies) [7]: eliminate ethylene binding; ethylene binding (previous studies) ([7]; listed as D25A): abolishes ethylene binding |
| B2 | exhibit ethylene insensitivity | rescued growth | conferred ethylene insensitivity | substantially reduced | minimal residual binding | various levels of hyposensitivity | – | – |
| B3 | – | failed to rescue seedling growth efficiently | partial ethylene hyposensitivity | – | – | – | approximately 6% | – |
| B4 | exhibit ethylene insensitivity | rescued growth | conferred ethylene insensitivity | No saturable [^14C]ethylene binding was detected | minimal residual binding | various levels of hyposensitivity | – | – |
| B5 | – | – | all ethylene insensitive | – | – | – | – | – |
| B6 | – | – | further reduction in the ability to rescue seedling growth and respond to ethylene | – | – | – | – | – |
| B7 | – | – | conferred ethylene hyposensitivity | – | – | – | 63% | – |
| B8 | – | – | a phenotype similar to that of the ETR1^K91M mutant or complete ethylene insensitivity | – | – | – | 1% | ethylene sensitivity of plants (previous studies) [3]: confer ethylene insensitivity; ethylene binding (previous studies) [7]: low level of ethylene binding ability |
| B9 | – | – | more insensitive to ethylene than the ETR1^K91R mutant | – | – | – | – | – |
